Read-outs that look alike come from different tables or passages of the source.
Legend:
Experiment in all cases: cryo-EM structure
[1] = target: φEL chaperonin (gene product 146 of Pseudomonas phage EL) (Pseudomonas phage EL)
[2] = target: φEL chaperonin (gene product 146 of Pseudomonas phage EL) (Pseudomonas phage EL); remark: listed apart in the source
[3] = target: φEL chaperonin (gene product 146 of Pseudomonas phage EL) (Pseudomonas phage EL); remark: listed apart in the source

φEL chaperonin (gene product 146 of Pseudomonas phage EL) (natural protein)
stoichiometry N [1]: 14 | stoichiometry N [2]: 7 | stoichiometry N [3]: 14
